The values that follow come from PMC10113255, “PHF14 enhances DNA methylation of SMAD7 gene to promote TGF-β-driven lung adenocarcinoma metastasis”.

The target of the data set is T1, PHF14 ePHD domain E430A K435A (Homo sapiens, UniProt O94880 382-499, E430A;K435A).
T1 sequence: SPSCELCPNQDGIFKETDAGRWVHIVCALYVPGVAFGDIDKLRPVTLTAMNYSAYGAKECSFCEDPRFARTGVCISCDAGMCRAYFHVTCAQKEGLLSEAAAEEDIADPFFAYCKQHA
The experiment in a line: SPR; protein immobilized on CM5; SPR: HBS-P (10 mM HEPES pH 7.4, 150 mM NaCl, 0.05% P20), 25 °C, 1:1 Langmuir fit; EMSA: LightShift kit protocol, 0.5x TBE native PAGE, buffer not stated. To be noted: protein: recombinant; tags: His (EMSA, purification method); FLAG (SPR); label: biotin (EMSA); blunt. A general note: Surface plasmon resonance follows binding to a sensor surface in real time, without labels.

By Kd is commonly meant a measure of binding affinity in units of concentration.

B1: CG-rich probe, unmethylated (dsDNA)
DNA 1: ACGGCTCGTCGCTACGGCTCGTCGCT
DNA 2: AGCGACGAGCCGTAGCGACGAGCCGT
Regarding B1, the dissociation constant Kd worked out at 275 nM.
